Data as given in patent publication US20090297479A1 (published 2009).

T1: DC-HIL, mouse, endogenous on APC / dendritic cells (mouse, UniProt Q99P91 23-574)
T1 sequence (looked up): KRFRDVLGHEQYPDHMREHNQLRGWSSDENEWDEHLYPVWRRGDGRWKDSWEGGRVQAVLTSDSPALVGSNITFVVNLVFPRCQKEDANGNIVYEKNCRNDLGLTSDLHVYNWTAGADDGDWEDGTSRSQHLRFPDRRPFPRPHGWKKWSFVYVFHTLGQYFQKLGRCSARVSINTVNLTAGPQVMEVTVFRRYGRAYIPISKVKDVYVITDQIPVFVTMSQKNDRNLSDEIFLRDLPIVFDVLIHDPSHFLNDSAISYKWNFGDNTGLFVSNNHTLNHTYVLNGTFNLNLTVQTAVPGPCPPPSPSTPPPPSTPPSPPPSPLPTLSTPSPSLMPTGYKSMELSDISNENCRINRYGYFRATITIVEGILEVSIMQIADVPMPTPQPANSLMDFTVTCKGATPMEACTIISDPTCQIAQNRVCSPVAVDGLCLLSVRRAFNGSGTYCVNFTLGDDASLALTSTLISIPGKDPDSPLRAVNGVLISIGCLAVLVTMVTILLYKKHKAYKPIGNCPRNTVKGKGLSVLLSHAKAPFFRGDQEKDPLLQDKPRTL

T2: DC-HIL-Fc RAA mutant (replacement of RGD sequence with RAA) (mouse; human, UniProt Q99P91 23-502)
T2 construct: extracellular domain; Positions 65 and 66 are derived from the printed position of RGD (aa 64-66); not shown: Fc of human IgG1
T2 sequence (looked up): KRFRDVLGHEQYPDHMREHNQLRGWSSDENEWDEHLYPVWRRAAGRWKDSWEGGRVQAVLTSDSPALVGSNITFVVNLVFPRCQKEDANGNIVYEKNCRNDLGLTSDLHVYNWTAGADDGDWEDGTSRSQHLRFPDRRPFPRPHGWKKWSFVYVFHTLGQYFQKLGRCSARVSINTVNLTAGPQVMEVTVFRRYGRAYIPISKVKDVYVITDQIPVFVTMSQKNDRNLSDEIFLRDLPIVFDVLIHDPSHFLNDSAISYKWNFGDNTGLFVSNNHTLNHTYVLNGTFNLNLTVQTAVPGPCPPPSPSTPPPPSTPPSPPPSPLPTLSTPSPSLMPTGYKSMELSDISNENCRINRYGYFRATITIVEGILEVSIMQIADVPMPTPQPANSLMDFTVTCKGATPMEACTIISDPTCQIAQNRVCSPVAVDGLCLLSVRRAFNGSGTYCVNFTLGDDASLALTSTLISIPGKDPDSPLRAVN


Key:
[1] = molecular target: T1, DC-HIL, mouse, endogenous on APC / …; test: cell-based or functional assay
[2] = molecular target: T2, DC-HIL-Fc RAA mutant (replacement of …); test: FACS, 10 µg/mL on activated CD4+ T-cells (ligand later identified as SD-4)
Protocol: Splenic CD3⁺ T-cells (1×10⁶) were activated by immobilized anti-CD3 Ab (1 or 3 μg/mL) or concanavalin A (10 μg/mL; Sigma, St Louis, Mo.) for 3 days. Freshly isolated and activated CD3⁺ T-cells were then treated with 5 μg/mL Fc blocker (BD Pharmingen, San Diego, Calif.) on ice for 30 minutes to block Fc-binding activity of Fc receptors on T-cells and incubated with 5 μg/mL PE-anti-CD3 Ab (BD Pharmingen) and 10 μg/mL DC-HIL-Fc or control human IgG (hIgG) plus 5 μg/mL FITC-anti-human IgG (both from Jackson ImmunoResearch, West Grove, Pa.). In some experiments, activated and Fc-blocked CD3⁺ T-cells were doubly-stained with 5 μg/mL FITC-labeled anti-CD4 or anti-CD8 Ab (BD Pharmingen) and Fc proteins/PE-anti-human IgG (BD Pharmingen). The treated cells were also stained with anti-CD69 Ab or isotypic control IgG to evaluate activation levels. After staining, binding of Fc proteins to T-cells and expression of marker molecules were analyzed by fluorescence-activated cell sorting (FACS).

[3] = molecular target: T3, recombinant Fc alone (human, UniProt P01857-1 99-330 = IgG part, limits assumed); test: FACS on T-cells (ligand on activated T-cells later identified as SD-4)
T3 construct: domain: Fc portion

Binder | T-cell activation in the mixed lymphocyte reaction (3H-thymidine) [1] [fold] | binding result [2] | binding result [3]
SD4-Fc (extracellular domain of SD-4 fused to the Fc portion of human IgG1) (Fc fusion, UniProt O35988 24-145, looked up, not shown: a dimerising Fc or GST) ESIRETEVIDPQDLLEGRYFSGALPDDEDAGGSDDFELSGSGDLDDTEEPRPFPEVIEPLVPLDNHIPENAQPGIRVPSEPKELEENEVIPKRAPSDVGDDMSNKVSMSSTAQGSNIFERTE | 2 | – | –
syndecan-4 (SD-4), mouse, endogenous on T-cells (receptor, UniProt O35988 24-198, looked up, heparin/heparan sulfate chains (binding of DC-HIL is blocked by heparin), whole, on cells) ESIRETEVIDPQDLLEGRYFSGALPDDEDAGGSDDFELSGSGDLDDTEEPRPFPEVIEPLVPLDNHIPENAQPGIRVPSEPKELEENEVIPKRAPSDVGDDMSNKVSMSSTAQGSNIFERTEVLAALIVGGVVGILFAVFLILLLVYRMKKKDEGSYDLGKKPIYKKAPTNEFYA | – | binds | no binding
